Data from article PMC6881245.

Assays:
Complement C1q [1] = biological target: Complement C1q (UniProt P02745)
Complement C1q [2] = biological target: Complement C1q (UniProt P02745); assay: flow cytometry on cholesterol crystals; C1q (50 μg/ml in PBS, 1 h RT) bound to cholesterol crystals (1.6 mg/ml), washed; vWF 10 μg/ml in PBS added for 1 h at RT, washed; vWF detected with polyclonal rabbit anti-vWF and anti-rabbit IgG-AF647; BD Accuri 6; n = 5
Complement C1q [3] = biological target: Complement C1q (UniProt P02745); remark: listed apart in the source

Sequence of UniProt P02745 (P02745 23-245, chain 1 of 3): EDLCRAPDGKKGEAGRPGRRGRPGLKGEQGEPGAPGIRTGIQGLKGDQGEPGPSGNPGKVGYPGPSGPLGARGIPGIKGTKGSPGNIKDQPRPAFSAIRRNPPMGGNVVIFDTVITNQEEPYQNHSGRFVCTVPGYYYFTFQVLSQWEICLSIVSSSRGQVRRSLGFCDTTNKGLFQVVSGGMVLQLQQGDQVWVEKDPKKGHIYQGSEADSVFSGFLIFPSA
Sequence of UniProt P02745 (P02746 28-253, chain 2 of 3, further chain): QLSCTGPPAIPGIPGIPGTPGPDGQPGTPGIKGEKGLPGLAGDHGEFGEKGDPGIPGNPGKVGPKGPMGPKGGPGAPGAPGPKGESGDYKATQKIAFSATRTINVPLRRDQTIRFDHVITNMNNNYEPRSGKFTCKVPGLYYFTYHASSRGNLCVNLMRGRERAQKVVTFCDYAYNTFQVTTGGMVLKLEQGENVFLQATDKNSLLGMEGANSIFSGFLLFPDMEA
Sequence of UniProt P02745 (P02747 29-245, chain 3 of 3, further chain): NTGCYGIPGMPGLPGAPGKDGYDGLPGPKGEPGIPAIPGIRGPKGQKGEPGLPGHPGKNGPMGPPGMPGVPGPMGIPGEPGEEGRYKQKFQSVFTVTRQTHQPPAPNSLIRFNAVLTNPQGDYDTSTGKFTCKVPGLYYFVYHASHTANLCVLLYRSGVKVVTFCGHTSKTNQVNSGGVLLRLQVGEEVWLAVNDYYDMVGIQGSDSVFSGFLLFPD

von Willebrand factor (from UniProt P04275 764-2813) (natural protein)
early phagocytosis (30 min) of pHrodo-dyed CC-C1q-vWF complexes by HMDMs, percent of CD11c+ cells in the pHrodo Red Ester+ gate; CC-C1q without vWF: 62, 40% (49.05–68.78%) (Complement C1q [1]): 54.5% | late phagocytosis (18 h) of CC-C1q-vWF complexes by HMDMs, percent of CD11c+ cells in the SSC^high gate; CC-C1q without vWF: 24.05% (22.55–34.60%) (Complement C1q [1]): 13.7% | median gMFI of vWF staining on CC-C1q (Complement C1q [2]): 115000 gMFI | caspase-1 activity of HMDMs after 18 h with CC-C1q-vWF complexes, percent of CD11c+ cells in the FLICA+ gate; CC-C1q without vWF: 11.54% (7.29–28.38%) (Complement C1q [3]): 9.37%
